Results on 94 variants are retold here after the supplement of paper PMC10567573.

First the molecules themselves.
B1: DYRK1B (parent)
chain: ARKYFERLPGGGWTLRRTKELRKD
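Further: lentivirally expressed fusions sorted by FACS into six bins by GFP to DsRed ratio, PSI derived from sequencing read proportions per bin multiplied by bin number.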

This series covers variants of B1. The series can be described thus: protein stability index of a GFP-peptide fusion (GPS, HEK-293T) (PSI 1-6); higher = more stable. The settings on record: c terminus: a fixed tail appended.
Regarding ARKYFERLPGGGWTLFRTKELRKD [R16F], the protein stability index worked out at 1.69. As for ARKYFERLPGGGWTLVRTKELRKD [R16V], the figure is 4.2; as for ARKYFERLPGGGWTLTRTKELRKD [R16T], 3.5; as for ARKYFERLPGGGWTLPRTKELRKD [R16P], 3.73. For ARKYFERLPGGGWTLKRTKELRKD [R16K], the protein stability index worked out at 3.48. With ARKYFERLPGGGWTLYRTKELRKD [R16Y], the protein stability index was found to be 1.45. The same measure for ARKYFERLPGGGWTLGRTKELRKD [R16G]: 3.66.

Take ARKYFERLPGGGWTLIRTKELRKD [R16I]: the protein stability index was 2.99. With ARKYFERLPGGGWTLSRTKELRKD [R16S], the protein stability index amounted to 3.17.

As for ARKYFERLPGGGWTLLRTKELRKD [R16L], the protein stability index is 2.79. As to ARKYFERLPGGGWTLHRTKELRKD [R16H], the protein stability index came to 2.44. For ARKYFERLPGGGWWLRRTKELRKD [T14W], the protein stability index came out at 2.72. The same measure for ARKYFERLPGGGWRLRRTKELRKD [T14R]: 2.33; for ARKYFERLPGGGWPLRRTKELRKD [T14P]: 2.52.

Consider ARKYFERLPGGGWQLRRTKELRKD [T14Q], for which the protein stability index was 2.9.

Consider ARKYFERLPGGGWKLRRTKELRKD [T14K], for which the protein stability index was determined as 3.34. As for ARKYFERLPGGGWFLRRTKELRKD [T14F], the figure is 2.36; as for ARKYFERLPGGGWSLRRTKELRKD [T14S], 3.34. As for ARKYFERLPGGGWVLRRTKELRKD [T14V], the protein stability index came out at 2.91. As for ARKYFERLPGGGWYLRRTKELRKD [T14Y], the figure is 3.01. For ARKYFERLPGGGWTLRITKELRKD [R17I], the protein stability index is 2.03. With ARKYFERLPGGGWTLRVTKELRKD [R17V], the protein stability index was 2.07. ARKYFERLPGGGWTLRLTKELRKD [R17L]: the protein stability index was 2.43. As for ARKYFERLPGGGWTLRDTKELRKD [R17D], the figure is 3.54; as for ARKYFERLPGGGWTLRGTKELRKD [R17G], 3.6; as for ARKYFERLPGGGWTLRYTKELRKD [R17Y], 3.02.

For ARKYFERLPGGGWTLRFTKELRKD [R17F], the protein stability index was 2.58.

Regarding ARKYFERLPGGGWTLRCTKELRKD [R17C], the protein stability index stood at 2.84.

For ARKYFERLPGGGWTLRSTKELRKD [R17S], the protein stability index turned out to be 3.35. The same measure for ARKYFERLPGGGWTLRWTKELRKD [R17W]: 2.35; for ARKYFERLPGGGWTLRETKELRKD [R17E]: 3.46. On to ARKYFERLPGGGWTLRMTKELRKD [R17M], for which the protein stability index is 2.38. For the variant ARKYFERLPGGGWTLRKTKELRKD [R17K], the protein stability index came to 2.69. Regarding ARKYFERLPGGGWTLRQTKELRKD [R17Q], the protein stability index was 2.83. As for ARKYFERLPGGGWTLRHTKELRKD [R17H], the figure is 3.2; as for ARKYFERLPGGGWTLRPTKELRKD [R17P], 2.75. As for ARKYFERLPGGGWTLRNTKELRKD [R17N], the figure is 3.22; as for ARKYFERLPGGAWTLRRTKELRKD [G12A], 3.06; as for ARKYFERLPGGDWTLRRTKELRKD [G12D], 4.15. As for ARKYFERLPGGIWTLRRTKELRKD [G12I], the figure is 2.03; as for ARKYFERLPGGSWTLRRTKELRKD [G12S], 3.11; as for ARKYFERLPGGQWTLRRTKELRKD [G12Q], 2.95. Regarding ARKYFERLPGGFWTLRRTKELRKD [G12F], the protein stability index was 2.93. With ARKYFERLPGGTWTLRRTKELRKD [G12T], the protein stability index was 2.98.

Turning to ARKYFERLPGGVWTLRRTKELRKD [G12V], the protein stability index was found to be 2.15. As for ARKYFERLPGGYWTLRRTKELRKD [G12Y], the figure is 2.42; as for ARKYFERLPGGKWTLRRTKELRKD [G12K], 3.81.

With ARKYFERLPGGNWTLRRTKELRKD [G12N], the protein stability index is 2. Take ARKYFERLPGGLWTLRRTKELRKD [G12L]: the protein stability index was 2.57.

Consider ARKYFERLPGGPWTLRRTKELRKD [G12P], for which the protein stability index is 2.96. For ARKYFERLPGGHWTLRRTKELRKD [G12H], the protein stability index came out at 3.85. Regarding ARKYFERLPGGMWTLRRTKELRKD [G12M], the protein stability index is 2.95. On to ARKYFERLPGGEWTLRRTKELRKD [G12E], for which the protein stability index is 3.02. ARKYFERLPGGGMTLRRTKELRKD [W13M]: the protein stability index came to 3.54. For ARKYFERLPGGGDTLRRTKELRKD [W13D], the protein stability index was found to be 3.59. Turning to ARKYFERLPGGGLTLRRTKELRKD [W13L], the protein stability index came to 3.54. The same measure for ARKYFERLPGGGCTLRRTKELRKD [W13C]: 4.61; for ARKYFERLPGGGNTLRRTKELRKD [W13N]: 3.95; for ARKYFERLPGGGHTLRRTKELRKD [W13H]: 2.52. As for ARKYFERLPGGGETLRRTKELRKD [W13E], the protein stability index was determined as 4.05. The same measure for ARKYFERLPGGGFTLRRTKELRKD [W13F]: 3.47; for ARKYFERLPGGGKTLRRTKELRKD [W13K]: 3.77. Consider ARKYFERLPGGGPTLRRTKELRKD [W13P], for which the protein stability index worked out at 4.18.

Turning to ARKYFERLPGGGITLRRTKELRKD [W13I], the protein stability index is 3.31. Consider ARKYFERLPGGGGTLRRTKELRKD [W13G], for which the protein stability index amounted to 5.15.

As to ARKYFERLPGGGATLRRTKELRKD [W13A], the protein stability index is 3.72.

Turning to ARKYFERLPGGGVTLRRTKELRKD [W13V], the protein stability index stood at 3.07. As for ARKYFERLPGGGRTLRRTKELRKD [W13R], the figure is 3.3; as for ARKYFERLPGGGTTLRRTKELRKD [W13T], 3.36; as for ARKYFERLPGGGWTHRRTKELRKD [L15H], 3.85. The same measure for ARKYFERLPGGGWTARRTKELRKD [L15A]: 3.78; for ARKYFERLPGGGWTKRRTKELRKD [L15K]: 3.15; for ARKYFERLPGGGWTMRRTKELRKD [L15M]: 3.25. As for ARKYFERLPGGGWTPRRTKELRKD [L15P], the protein stability index worked out at 2.7. With ARKYFERLPGGGWTTRRTKELRKD [L15T], the protein stability index was 3.35. Turning to ARKYFERLPGGGWTRRRTKELRKD [L15R], the protein stability index is 3.34. Turning to ARKYFERLPGGGWTIRRTKELRKD [L15I], the protein stability index worked out at 3.22. The same measure for ARKYFERLPGGGWTDRRTKELRKD [L15D]: 2.88; for ARKYFERLPGGGWTVRRTKELRKD [L15V]: 4.02. Turning to ARKYFERLPGGGWTYRRTKELRKD [L15Y], the protein stability index amounted to 3.73.

On to ARKYFERLPGGGWTNRRTKELRKD [L15N], for which the protein stability index worked out at 2.95. In the case of ARKYFERLPGGGWTQRRTKELRKD [L15Q], the protein stability index is 3.65. Turning to ARKYFERLPGGGWTCRRTKELRKD [L15C], the protein stability index came to 3.29. Consider ARKYFERLPGGGWTLRRTKEVRKD [L21V], for which the protein stability index turned out to be 3.7. ARKYFERLPGGGWTLRRTKESRKD [L21S]: the protein stability index amounted to 4.45. As for ARKYFERLPGGGWTLRRTKECRKD [L21C], the protein stability index worked out at 4.41. As for ARKYFERLPGGGWTLRRTKEERKD [L21E], the figure is 4.62. For the variant ARKYFERLPGGGWTLRRTKEQRKD [L21Q], the protein stability index was found to be 3.88. Consider ARKYFERLPGGGWTLRRTKEPRKD [L21P], for which the protein stability index is 3.26. Turning to ARKYFERLPGGGWTLRRTKEHRKD [L21H], the protein stability index amounted to 3.95. With ARKYFERLPGGGWTLRRTKEIRKD [L21I], the protein stability index was 3.44. Take ARKYFERLPGGGWTLRRTKEKRKD [L21K]: the protein stability index turned out to be 3.73. As for ARKYFERLPGGGWTLRRTKEGRKD [L21G], the figure is 3.95; as for ARKYFERLPGGGWTLRRTKEWRKD [L21W], 3.76.
